According to article PMC10104300, “Conserved intramolecular networks in GDAP1 are closely connected to CMT-linked mutations and protein stability” (PLOS ONE, 2023):
Positions count from the first letter of the chain named. In names and notes the source's numbering stands.

Legend:
[1] = target: wild-type GDAP1 (GDAP1Δ303–358) (human) (UniProt Q8TB36); test: batch-mode SAXS; concentration range 1–4 mg/ml, P12 beamline EMBL/DESY
[2] = target: the molecule itself; test: SEC-SAXS; variants in GDAP1Δ303–358; 100 μl at 1.7–36 mg/ml (maximum concentration for each variant) injected onto a BioSEC3-300 column, 25 mM HEPES pH 7.5, 300 mM NaCl, +15°C; top of the peak analysed
[3] = target: the molecule itself; test: SEC-SAXS; Arg310 mutants in GDAP1Δ319–358, at lower concentration than all the other mutants; BioSEC3-300 column, 25 mM HEPES pH 7.5, 300 mM NaCl, +15°C; two peaks (dimer and monomer)

## wild-type GDAP1 (GDAP1Δ303–358) (from UniProt Q8TB36-1 1-302) (domain or fragment)
[1]
  stoichiometry N: 2

B1: GDAP1Δ303–358 R120Q (domain or fragment, human, UniProt Q8TB36-1 1-302, looked up)
chain: MAERQEEQRGSPPLRAEGKADAEVKLILYHWTHSFSSQKVRLVIAEKALKCEEHDVSLPLSEHNEPWFMRLNSTGEVPVLIHGENIICEATQIIDYLEQTFLDERTPRLMPDKESMYYPQVQHYRELLDSLPMDAYTHGCILHPELTVDSMIPAYATTRIRSQIGNTESELKKLAEENPDLQEAYIAKQKRLKSKLLDHDNVKYLKKILDELEKVLDQVETELQRRNEETPEEGQQPWLCGESFTLADVSLAVTLHRLKFLGFARRNWGNGKRPNLETYYERVLKRKTFNKVLGHVNNILIS
notes: human GDAP1 lacking residues 303-358 (GDAP1Δ303–358) with the CMT-linked mutation R120Q; CMT disease variant; source: E. coli BL21(DE3), autoinduction, purified (Ni-NTA, TEV cleavage, reverse Ni-NTA, SEC); not shown: His6, N-terminal, cleaved
[2]
  stoichiometry N: 2

B2: GDAP1Δ303–358 A247V (domain or fragment, human, UniProt Q8TB36-1 1-302, looked up)
chain: B1 chain with Q120R, A247V
notes: human GDAP1 lacking residues 303-358 (GDAP1Δ303–358) with the CMT-linked mutation A247V; CMT disease variant; source: E. coli BL21(DE3), autoinduction, purified (Ni-NTA, TEV cleavage, reverse Ni-NTA, SEC); not shown: His6, N-terminal, cleaved
[2]
  stoichiometry N: 2

B3: GDAP1Δ303–358 H256R (domain or fragment, human, UniProt Q8TB36-1 1-302, looked up)
chain: B1 chain with Q120R, H256R
notes: human GDAP1 lacking residues 303-358 (GDAP1Δ303–358) with the CMT-linked mutation H256R; CMT disease variant; source: E. coli BL21(DE3), autoinduction, purified (Ni-NTA, TEV cleavage, reverse Ni-NTA, SEC); not shown: His6, N-terminal, cleaved
[2]
  stoichiometry N: 2

B4: GDAP1Δ303–358 R161H (domain or fragment, human, UniProt Q8TB36-1 1-302, looked up)
chain: B1 chain with Q120R, R161H
notes: human GDAP1 lacking residues 303-358 (GDAP1Δ303–358) with the CMT-linked mutation R161H; CMT disease variant; source: E. coli BL21(DE3), autoinduction, purified (Ni-NTA, TEV cleavage, reverse Ni-NTA, SEC); not shown: His6, N-terminal, cleaved
[2]
  stoichiometry N: 2

B5: GDAP1Δ303–358 R282H (domain or fragment, human, UniProt Q8TB36-1 1-302, looked up)
chain: B1 chain with Q120R, R282H
notes: human GDAP1 lacking residues 303-358 (GDAP1Δ303–358) with the CMT-linked mutation R282H; CMT disease variant; source: E. coli BL21(DE3), autoinduction, purified (Ni-NTA, TEV cleavage, reverse Ni-NTA, SEC); not shown: His6, N-terminal, cleaved
[2]
  stoichiometry N: 2

B6: GDAP1Δ319–358 R310Q (domain or fragment, human, UniProt Q8TB36-1 1-318, looked up)
chain: MAERQEEQRGSPPLRAEGKADAEVKLILYHWTHSFSSQKVRLVIAEKALKCEEHDVSLPLSEHNEPWFMRLNSTGEVPVLIHGENIICEATQIIDYLEQTFLDERTPRLMPDKESMYYPRVQHYRELLDSLPMDAYTHGCILHPELTVDSMIPAYATTRIRSQIGNTESELKKLAEENPDLQEAYIAKQKRLKSKLLDHDNVKYLKKILDELEKVLDQVETELQRRNEETPEEGQQPWLCGESFTLADVSLAVTLHRLKFLGFARRNWGNGKRPNLETYYERVLKRKTFNKVLGHVNNILISAVLPTAFQVAKKRAPK
notes: human GDAP1 lacking residues 319-358 (GDAP1Δ319–358) with the CMT-linked mutation R310Q; CMT disease variant; eluted as dimer (main peak) and monomer; source: E. coli BL21(DE3), autoinduction, purified (Ni-NTA, TEV cleavage, reverse Ni-NTA, SEC); not shown: His6, N-terminal, cleaved
[3]
  stoichiometry N: 2

B7: GDAP1Δ319–358 R310W (domain or fragment, human, UniProt Q8TB36-1 1-318, looked up)
chain: B6 chain with Q310W
notes: human GDAP1 lacking residues 319-358 (GDAP1Δ319–358) with the CMT-linked mutation R310W; CMT disease variant; eluted as monomer (highest peak) and dimer; source: E. coli BL21(DE3), autoinduction, purified (Ni-NTA, TEV cleavage, reverse Ni-NTA, SEC); not shown: His6, N-terminal, cleaved
[3]
  stoichiometry N: 2
